In patent US20140178405A1:

B1: VHH 2KA4 anti VP6 (VHH)
VHH: DVQLQASGGGLVQAGDSLRLSCVQSGPGRYGVGWFRQAPGKEREFVAAVSGSGGSKYYGDSVQGRFTISKDDAKNTVYLQMNNLKPEDTAVYYCAVRRTYSGSNLWHRSDEYDSWGPGTQVTVSS
B2: bivalent VHH biv2KA4 (bispecific antibody)
chain: MADVQLQASGGGLVQAGDSLRLSCVQSGPGRYGVGWFRQAPGKEREFVAAVSGSGGSKYYGDSVQGRFTISKDDAKNTVYLQMNNLKPEDTAVYYCAVRRTYSGSNLWHRSDEYDSWGPGTQVTVSSSGPSTPPRPSPSTPPSDVQLQASGGGLVQAGDSLRLSCVQSGPGRYGVGWFRQAPGKEREFVAAVSGSGGSKYYGDSVQGRFTISKDDAKNTVYLQMNNLKPEDTAVYYCAVRRTYSGSNLWHRSDEYDSWGPGTQVTVSSGRHHHHHH
B3: VHH 3B2 anti VP6 (VHH)
VHH: DVQLQASGGGLAQAGDSLTLSCAASGRTFSGYVVGWFRQAPGAEREFVGAIRWSEDSTWYGDSMKGRILISRNNIKNTVNLQMFNLKPEDTAVYVCAAGAGDIVTTETSYNYWGRGTQVTVSS
B4: VHH 3A6 anti VP6 (VHH)
VHH: EVQLQASGGGFVQPGGSLSLSCAVSGRSFGDDVMGWFRQAPGKEREFVSAIRFRSNSPFYGDPGKGRFTIARDSAKDTVYLHMYRLRPDDTAVYYCAVGDGALVNRASDYTYWGQGTQVTVSS
B5: VHH 2KD1 anti VP6 (VHH)
VHH: DVQLQASGGGFVQPGDSLSLSCAASGGTFSSYSIGWFRQGPGKEREFVATISSSDSPWYGEPAKGRFTVARVNAKNTAYLHLNRLKPEDTATYYCAAGSVQHMANENEYVYWGQGTQVTVSS

What was measured:
Experiment in all cases: cell-based or functional assay
[1] = target: native VP6 of bovine rotavirus IND (SbI; P[5]G6), in the virus (bovine rotavirus strain IND)
[2] = target: native VP6 of bovine rotavirus C486 (SbI; P[1]G6), in the virus (bovine rotavirus strain C486)
[3] = target: native VP6 of human rotavirus Wa (SbII; P[8]G1), in the virus (human rotavirus strain Wa)
[4] = target: native VP6 of equine rotavirus H2 (Sb no I, no II; P[12]G3), in the virus (equine rotavirus strain H2)
Chain of native VP6 of equine rotavirus H2 (Sb no I, no II; P[12]G3), in the virus (equine rotavirus strain H2) (P16488 whole entry): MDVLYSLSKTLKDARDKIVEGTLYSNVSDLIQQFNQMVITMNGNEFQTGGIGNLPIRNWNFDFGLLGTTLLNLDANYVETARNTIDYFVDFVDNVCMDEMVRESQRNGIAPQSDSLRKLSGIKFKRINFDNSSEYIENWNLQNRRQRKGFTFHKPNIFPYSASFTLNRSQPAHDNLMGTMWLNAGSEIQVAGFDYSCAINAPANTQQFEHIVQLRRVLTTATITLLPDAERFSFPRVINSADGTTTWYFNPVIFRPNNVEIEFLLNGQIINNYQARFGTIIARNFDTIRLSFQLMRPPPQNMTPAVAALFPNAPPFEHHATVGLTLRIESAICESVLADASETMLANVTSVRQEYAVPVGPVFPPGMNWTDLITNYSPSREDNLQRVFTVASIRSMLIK

Chain of native VP6 of human rotavirus Wa (SbII; P[8]G1), in the virus (human rotavirus strain Wa) (P03530 whole entry): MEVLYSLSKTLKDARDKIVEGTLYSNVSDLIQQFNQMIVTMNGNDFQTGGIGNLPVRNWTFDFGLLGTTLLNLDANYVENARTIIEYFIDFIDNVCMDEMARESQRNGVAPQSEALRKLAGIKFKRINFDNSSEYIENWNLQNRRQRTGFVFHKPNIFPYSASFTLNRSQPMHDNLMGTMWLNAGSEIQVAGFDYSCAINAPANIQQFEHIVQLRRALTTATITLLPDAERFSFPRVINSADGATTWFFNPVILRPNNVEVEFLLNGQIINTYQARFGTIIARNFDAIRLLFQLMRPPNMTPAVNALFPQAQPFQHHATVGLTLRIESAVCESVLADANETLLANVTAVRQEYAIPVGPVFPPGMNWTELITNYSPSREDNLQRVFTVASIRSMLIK

| Molecule | VN antibody titre (inverse of the highest VHH dilution that reduces >80% of the FFU per 100 FFU), VHH at 2 mg/ml (titre (reciprocal dilution)) [1] | VN antibody titre (inverse of the highest VHH dilution that reduces >80% of the FFU per 100 FFU), VHH at 2 mg/ml (titre (reciprocal dilution)) [2] | VN antibody titre (inverse of the highest VHH dilution that reduces >80% of the FFU per 100 FFU), VHH at 2 mg/ml (titre (reciprocal dilution)) [3] | VN antibody titre (inverse of the highest VHH dilution that reduces >80% of the FFU per 100 FFU), VHH at 2 mg/ml (titre (reciprocal dilution)) [4] | other results |
| --- | --- | --- | --- | --- | --- |
| non-related VHH, directed against a cellular protein |  |  |  |  | VN antibody titre (inverse of the highest VHH dilution that reduces >80% of the FFU per 100 FFU), VHH at 0.4 mg/ml (titre (reciprocal dilution)) [1]: < 8; VN antibody titre (inverse of the highest VHH dilution that reduces >80% of the FFU per 100 FFU), VHH at 0.4 mg/ml (titre (reciprocal dilution)) [2]: < 8; VN antibody titre (inverse of the highest VHH dilution that reduces >80% of the FFU per 100 FFU), VHH at 0.4 mg/ml (titre (reciprocal dilution)) [3]: < 8; VN antibody titre (inverse of the highest VHH dilution that reduces >80% of the FFU per 100 FFU), VHH at 0.4 mg/ml (titre (reciprocal dilution)) [4]: < 8 |
| B1 | < 8 | < 8 | < 8 | < 8 |  |
| B2 |  |  |  |  | VN antibody titre (inverse of the highest VHH dilution that reduces >80% of the FFU per 100 FFU), VHH at 0.5 mg/ml (titre (reciprocal dilution)) [1]: < 8; VN antibody titre (inverse of the highest VHH dilution that reduces >80% of the FFU per 100 FFU), VHH at 0.5 mg/ml (titre (reciprocal dilution)) [2]: < 8; VN antibody titre (inverse of the highest VHH dilution that reduces >80% of the FFU per 100 FFU), VHH at 0.5 mg/ml (titre (reciprocal dilution)) [3]: 32; VN antibody titre (inverse of the highest VHH dilution that reduces >80% of the FFU per 100 FFU), VHH at 0.5 mg/ml (titre (reciprocal dilution)) [4]: < 8 |
| B3 | 1024 | 1024 | 8192 | 512 |  |
| B4 | 1024 | 1024 | 2048 | 128 |  |
| B5 | 2048 | 2048 | 8192 | 512 |  |
